Results published in PMC3074145 (Nucleic Acids Research, 2010).
Read-outs that look alike come from different tables or passages of the source. Values belong to the binder of their own block, whether it stands above or below them.

How the values were obtained:
GST-Sld2T84D [1] = biological target: T1, GST-Sld2T84D (Saccharomyces cerevisiae, UniProt P34252 1-453, T84D); assay: GST pull-down
T1 sequence: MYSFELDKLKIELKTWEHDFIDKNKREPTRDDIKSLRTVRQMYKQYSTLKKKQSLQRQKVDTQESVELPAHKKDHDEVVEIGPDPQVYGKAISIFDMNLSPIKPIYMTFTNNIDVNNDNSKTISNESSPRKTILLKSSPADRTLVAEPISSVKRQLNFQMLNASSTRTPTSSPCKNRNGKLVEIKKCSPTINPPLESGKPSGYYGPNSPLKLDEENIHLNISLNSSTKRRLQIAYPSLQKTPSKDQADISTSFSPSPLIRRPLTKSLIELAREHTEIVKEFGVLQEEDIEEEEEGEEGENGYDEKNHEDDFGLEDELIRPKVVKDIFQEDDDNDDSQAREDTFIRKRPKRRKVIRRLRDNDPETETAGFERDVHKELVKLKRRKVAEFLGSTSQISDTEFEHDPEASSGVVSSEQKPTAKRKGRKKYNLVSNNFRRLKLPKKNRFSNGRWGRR

GST–Dpb11 = biological target: T2, GST–Dpb11 (S. cerevisiae, UniProt P47027 1-764); assay: pull-down
T2 sequence (looked up): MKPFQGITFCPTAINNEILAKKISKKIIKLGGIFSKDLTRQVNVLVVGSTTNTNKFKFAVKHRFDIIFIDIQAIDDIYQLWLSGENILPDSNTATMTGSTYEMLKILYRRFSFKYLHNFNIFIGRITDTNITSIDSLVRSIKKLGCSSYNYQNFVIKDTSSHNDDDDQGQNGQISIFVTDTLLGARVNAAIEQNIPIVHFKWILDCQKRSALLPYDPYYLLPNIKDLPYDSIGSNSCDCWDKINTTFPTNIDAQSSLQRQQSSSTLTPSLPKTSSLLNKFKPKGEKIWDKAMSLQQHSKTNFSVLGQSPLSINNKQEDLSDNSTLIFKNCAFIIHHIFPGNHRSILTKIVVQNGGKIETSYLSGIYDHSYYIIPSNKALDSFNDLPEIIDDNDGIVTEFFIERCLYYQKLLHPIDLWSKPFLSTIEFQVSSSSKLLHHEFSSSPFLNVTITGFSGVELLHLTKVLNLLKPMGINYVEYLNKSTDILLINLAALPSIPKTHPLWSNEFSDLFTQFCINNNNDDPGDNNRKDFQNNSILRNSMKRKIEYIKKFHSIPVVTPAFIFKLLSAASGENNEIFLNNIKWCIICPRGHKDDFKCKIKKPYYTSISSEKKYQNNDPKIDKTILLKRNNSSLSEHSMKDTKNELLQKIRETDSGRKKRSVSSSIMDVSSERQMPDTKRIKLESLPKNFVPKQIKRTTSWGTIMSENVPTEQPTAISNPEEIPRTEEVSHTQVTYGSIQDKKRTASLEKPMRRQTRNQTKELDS

Sld2 = biological target: T3, Sld2 (Saccharomyces cerevisiae, UniProt P34252 1-453); assay: fluorescence anisotropy
T3 sequence: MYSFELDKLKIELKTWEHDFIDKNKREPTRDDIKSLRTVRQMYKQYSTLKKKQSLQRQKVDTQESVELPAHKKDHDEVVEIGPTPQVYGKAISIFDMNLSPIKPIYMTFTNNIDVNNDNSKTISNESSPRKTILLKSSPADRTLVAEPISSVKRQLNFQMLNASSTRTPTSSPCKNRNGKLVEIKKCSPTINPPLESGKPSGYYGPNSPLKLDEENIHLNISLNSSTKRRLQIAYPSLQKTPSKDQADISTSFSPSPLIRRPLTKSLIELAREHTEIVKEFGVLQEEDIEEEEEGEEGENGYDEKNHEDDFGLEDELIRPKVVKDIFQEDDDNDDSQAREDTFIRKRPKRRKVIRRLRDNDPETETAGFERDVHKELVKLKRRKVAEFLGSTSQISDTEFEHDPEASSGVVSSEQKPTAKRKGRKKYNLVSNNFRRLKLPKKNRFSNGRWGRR

Sld2T84D = biological target: T4, Sld2T84D (Saccharomyces cerevisiae, UniProt P34252 1-453, T84D); assay: fluorescence anisotropy
T4 sequence: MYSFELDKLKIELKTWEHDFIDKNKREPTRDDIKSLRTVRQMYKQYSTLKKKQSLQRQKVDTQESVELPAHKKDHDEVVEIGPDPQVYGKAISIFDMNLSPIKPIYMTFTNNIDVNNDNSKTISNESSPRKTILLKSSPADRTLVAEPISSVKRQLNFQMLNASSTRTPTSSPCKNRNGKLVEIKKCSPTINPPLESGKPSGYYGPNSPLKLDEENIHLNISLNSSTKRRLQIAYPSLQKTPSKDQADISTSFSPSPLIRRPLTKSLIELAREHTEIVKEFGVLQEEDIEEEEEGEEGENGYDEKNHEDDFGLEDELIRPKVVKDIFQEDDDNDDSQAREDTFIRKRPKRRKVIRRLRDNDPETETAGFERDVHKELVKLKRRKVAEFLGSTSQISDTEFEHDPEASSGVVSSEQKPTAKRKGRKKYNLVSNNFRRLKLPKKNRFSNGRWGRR

Dpb11;Sld2T84D = biological target: T5, Dpb11;Sld2T84D (Saccharomyces cerevisiae;Saccharomyces …, UniProt P47027;P34252 1-764;1-453, |T84D); assay: biotin-DNA pull-down
T5 sequence 1: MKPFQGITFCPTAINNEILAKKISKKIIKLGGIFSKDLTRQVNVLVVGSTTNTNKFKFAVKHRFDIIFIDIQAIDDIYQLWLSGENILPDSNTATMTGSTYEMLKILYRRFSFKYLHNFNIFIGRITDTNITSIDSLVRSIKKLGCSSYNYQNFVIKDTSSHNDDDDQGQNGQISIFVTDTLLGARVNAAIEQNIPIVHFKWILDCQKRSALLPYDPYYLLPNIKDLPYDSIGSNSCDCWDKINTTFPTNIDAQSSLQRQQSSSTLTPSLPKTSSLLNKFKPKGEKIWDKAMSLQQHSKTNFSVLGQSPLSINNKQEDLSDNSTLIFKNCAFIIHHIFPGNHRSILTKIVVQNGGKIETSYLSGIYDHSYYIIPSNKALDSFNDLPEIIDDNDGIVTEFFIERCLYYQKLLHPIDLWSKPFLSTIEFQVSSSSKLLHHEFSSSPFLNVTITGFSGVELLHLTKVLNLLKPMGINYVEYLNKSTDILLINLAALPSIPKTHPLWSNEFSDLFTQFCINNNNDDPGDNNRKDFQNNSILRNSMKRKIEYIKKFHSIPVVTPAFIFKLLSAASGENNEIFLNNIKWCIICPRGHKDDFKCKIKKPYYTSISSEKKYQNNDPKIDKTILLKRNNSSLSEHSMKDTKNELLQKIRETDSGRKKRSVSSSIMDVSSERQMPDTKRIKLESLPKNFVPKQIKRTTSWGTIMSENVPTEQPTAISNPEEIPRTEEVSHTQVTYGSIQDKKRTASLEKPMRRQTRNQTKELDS
T5 sequence 2: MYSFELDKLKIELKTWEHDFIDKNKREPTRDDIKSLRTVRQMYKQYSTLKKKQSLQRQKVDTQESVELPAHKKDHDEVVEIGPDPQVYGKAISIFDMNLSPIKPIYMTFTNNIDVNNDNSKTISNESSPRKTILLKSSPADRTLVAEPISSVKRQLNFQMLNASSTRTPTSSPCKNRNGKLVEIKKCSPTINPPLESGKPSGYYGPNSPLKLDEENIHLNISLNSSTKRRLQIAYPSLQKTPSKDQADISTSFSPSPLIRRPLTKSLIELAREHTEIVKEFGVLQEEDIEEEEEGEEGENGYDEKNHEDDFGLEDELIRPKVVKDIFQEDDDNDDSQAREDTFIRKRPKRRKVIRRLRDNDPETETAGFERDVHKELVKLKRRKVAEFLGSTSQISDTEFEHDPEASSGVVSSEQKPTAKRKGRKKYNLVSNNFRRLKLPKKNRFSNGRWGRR

GST-Sld2T84D [2] = biological target: T1, GST-Sld2T84D; assay: GST pull-down; remark: listed apart in the source

B1: ARS1-A-C (ssDNA)
DNA: TTCCCTCTTGTTCTTTTCCCGCTTTTCTGTTTCGCTCTTTTCTGCTTGCTTTTCCCCCGGCCTGCCGGCCCGTGCCCCCC
binding result (GST-Sld2T84D [1]): binds

percent of input pulled down (with ssARS1-1 at a ratio of 1.2 ssARS1-1/Sld2T84D) (GST–Dpb11): 35.2%
B2: Sld2T84D (radiolabeled, with a PKA sequence at the N-terminus) (natural protein, S. cerevisiae, UniProt P34252 1-453, looked up)
chain: MYSFELDKLKIELKTWEHDFIDKNKREPTRDDIKSLRTVRQMYKQYSTLKKKQSLQRQKVDTQESVELPAHKKDHDEVVEIGPDPQVYGKAISIFDMNLSPIKPIYMTFTNNIDVNNDNSKTISNESSPRKTILLKSSPADRTLVAEPISSVKRQLNFQMLNASSTRTPTSSPCKNRNGKLVEIKKCSPTINPPLESGKPSGYYGPNSPLKLDEENIHLNISLNSSTKRRLQIAYPSLQKTPSKDQADISTSFSPSPLIRRPLTKSLIELAREHTEIVKEFGVLQEEDIEEEEEGEEGENGYDEKNHEDDFGLEDELIRPKVVKDIFQEDDDNDDSQAREDTFIRKRPKRRKVIRRLRDNDPETETAGFERDVHKELVKLKRRKVAEFLGSTSQISDTEFEHDPEASSGVVSSEQKPTAKRKGRKKYNLVSNNFRRLKLPKKNRFSNGRWGRR
modifications: 32P-phosphate on the N-terminal PKA sequence (radiolabeled with PKA and γ-32P-ATP)

B3: FAM-ssARS1-1 (ssDNA)
DNA: TTACATCTTGTTATTTTACAGATTTTATGTTTAGATCTTTTATGCTTGCTTTTCAAAAGGCCTGCAGGCAAGTGCACAAA
Kd (Sld2): 694 ± 50 nM | Kd (Sld2T84D): 179 ± 43 nM

B4: Biotin-ssARS1-1 (ssDNA)
DNA: TTACATCTTGTTATTTTACAGATTTTATGTTTAGATCTTTTATGCTTGCTTTTCAAAAGGCCTGCAGGCAAGTGCACAAA
binding result (Dpb11;Sld2T84D): binds

B5: ARS1-G-C (ssDNA)
DNA: TTACATCTTGTTATTTTACACATTTTATCTTTACATCTTTTATCCTTCCTTTTCAAAACCCCTCCACCCAACTCCACAAA
binding result (GST-Sld2T84D [1]): binds

B6: ARS1-T-A (ssDNA)
DNA: AAACAACAAGAAAAAAAACAGAAAAAAAGAAAAGAACAAAAAAGCAAGCAAAACAAAAGGCCAGCAGGCAAGAGCACAAA
binding result (GST-Sld2T84D [2]): no binding
